Experimental data taken from US20250163162A1 (SYNTHEKINE, published 2025).

Assays:
Test in all cases: cell-based or functional assay
IL10Rα/IL2Rγ receptor [1] = biological target: T1, IL10Rα/IL2Rγ receptor (human, UniProt Q13651 22-578; P31785 23-369)
T1 sequence (looked up) 1: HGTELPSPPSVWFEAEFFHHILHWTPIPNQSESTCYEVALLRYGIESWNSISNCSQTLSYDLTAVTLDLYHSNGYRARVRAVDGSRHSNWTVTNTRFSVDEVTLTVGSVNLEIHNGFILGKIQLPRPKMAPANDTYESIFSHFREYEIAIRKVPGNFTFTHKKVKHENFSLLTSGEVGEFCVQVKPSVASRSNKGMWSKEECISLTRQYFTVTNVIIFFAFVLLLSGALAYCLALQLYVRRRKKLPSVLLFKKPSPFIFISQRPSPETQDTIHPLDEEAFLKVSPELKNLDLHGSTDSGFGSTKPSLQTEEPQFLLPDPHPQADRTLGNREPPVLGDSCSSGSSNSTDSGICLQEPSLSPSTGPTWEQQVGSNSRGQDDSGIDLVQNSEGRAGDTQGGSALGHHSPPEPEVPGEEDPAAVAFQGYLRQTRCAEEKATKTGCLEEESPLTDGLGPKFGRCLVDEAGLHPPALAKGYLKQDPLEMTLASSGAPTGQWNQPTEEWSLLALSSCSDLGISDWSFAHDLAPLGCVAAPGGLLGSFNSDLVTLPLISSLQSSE
T1 sequence (looked up) 2: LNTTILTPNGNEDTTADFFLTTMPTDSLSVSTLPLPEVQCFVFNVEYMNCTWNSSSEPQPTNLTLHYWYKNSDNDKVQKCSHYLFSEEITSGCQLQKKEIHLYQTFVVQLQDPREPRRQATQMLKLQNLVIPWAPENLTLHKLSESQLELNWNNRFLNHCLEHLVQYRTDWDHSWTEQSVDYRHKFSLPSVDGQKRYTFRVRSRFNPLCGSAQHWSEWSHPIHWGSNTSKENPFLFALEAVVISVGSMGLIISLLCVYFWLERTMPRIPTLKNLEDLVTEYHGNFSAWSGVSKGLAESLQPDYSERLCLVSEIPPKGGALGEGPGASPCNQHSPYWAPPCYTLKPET

IL10Rα/IL2Rγ receptor [2] = biological target: T1, IL10Rα/IL2Rγ receptor; remark: listed apart in the source
IL10Rα/IL2Rγ receptor [3] = biological target: T1, IL10Rα/IL2Rγ receptor; remark: listed apart in the source
IL10Rα/IL2Rγ receptor [4] = biological target: T1, IL10Rα/IL2Rγ receptor; remark: listed apart in the source
IL10Rα/IL2Rγ receptor [5] = biological target: T1, IL10Rα/IL2Rγ receptor; remark: listed apart in the source
IL10Rα/IL2Rγ receptor [6] = biological target: T1, IL10Rα/IL2Rγ receptor; remark: listed apart in the source

B1: DR441(DR236-DR231) (bispecific antibody)
chain: QVQLQESGGGSVQAGGSLRLSCAASRFTYSSYCMGWFRQAPGKEREGVASIDSDGSTSYTDSVKGRFTISKDNAKNTLYLQMNSLKPEDTAMYYCALDLMSTVVPGFCGFLLSAGMDYWGKGTQVTVSSGGGSQVQLQESGGGSVQAGGSLRLSCTASGFTFDDREMNWYRQAPGNECELVSTISSDGSTYYADSVKGRFTISQDNAKNTVYLQMDSVKPEDTAVYYCAADFMIAIQAPGAGCWGQGTQVTVSSASHHHHHH
pSTAT3 MFI, B cells, 100 nM (unstimulated 1045) (IL10Rα/IL2Rγ receptor [1]): 1280 MFI
pSTAT3 MFI, CD4+ T cells, 100 nM (unstimulated 1778) (IL10Rα/IL2Rγ receptor [1]): 5760 MFI
pSTAT3 MFI, CD8+ T cells, 100 nM (unstimulated 1288) (IL10Rα/IL2Rγ receptor [1]): 3940 MFI
pSTAT3 MFI, Monocytes, 100 nM (unstimulated 1787) (IL10Rα/IL2Rγ receptor [1]): 2130 MFI
pSTAT3 MFI, NK cells, 100 nM (unstimulated 1149) (IL10Rα/IL2Rγ receptor [1]): 1660 MFI
pSTAT3 MFI, B cells, 0.0001 nM (unstimulated 1193.5) (IL10Rα/IL2Rγ receptor [2]): 1120 MFI
pSTAT3 MFI, B cells, 0.001 nM (unstimulated 1193.5) (IL10Rα/IL2Rγ receptor [2]): 1130 MFI
pSTAT3 MFI, B cells, 0.01 nM (unstimulated 1193.5) (IL10Rα/IL2Rγ receptor [2]): 1130 MFI
pSTAT3 MFI, B cells, 0.1 nM (unstimulated 1193.5) (IL10Rα/IL2Rγ receptor [2]): 1120 MFI
pSTAT3 MFI, B cells, 1 nM (unstimulated 1193.5) (IL10Rα/IL2Rγ receptor [2]): 1220 MFI
pSTAT3 MFI, B cells, 10 nM (unstimulated 1193.5) (IL10Rα/IL2Rγ receptor [2]): 1540 MFI
pSTAT3 MFI, B cells, 100 nM (unstimulated 1193.5) (IL10Rα/IL2Rγ receptor [2]): 1470 MFI
pSTAT3 MFI, CD4 T cells, 0.0001 nM (unstimulated 1887) (IL10Rα/IL2Rγ receptor [3]): 1810 MFI
pSTAT3 MFI, CD4 T cells, 0.001 nM (unstimulated 1887) (IL10Rα/IL2Rγ receptor [3]): 1830 MFI
pSTAT3 MFI, CD4 T cells, 0.01 nM (unstimulated 1887) (IL10Rα/IL2Rγ receptor [3]): 1880 MFI
pSTAT3 MFI, CD4 T cells, 0.1 nM (unstimulated 1887) (IL10Rα/IL2Rγ receptor [3]): 2240 MFI
pSTAT3 MFI, CD4 T cells, 1 nM (unstimulated 1887) (IL10Rα/IL2Rγ receptor [3]): 4560 MFI
pSTAT3 MFI, CD4 T cells, 10 nM (unstimulated 1887) (IL10Rα/IL2Rγ receptor [3]): 6760 MFI
pSTAT3 MFI, CD4 T cells, 100 nM (unstimulated 1887) (IL10Rα/IL2Rγ receptor [3]): 6350 MFI
pSTAT3 MFI, NK cells, 0.0001 nM (unstimulated 1315) (IL10Rα/IL2Rγ receptor [4]): 1250 MFI
pSTAT3 MFI, NK cells, 0.001 nM (unstimulated 1315) (IL10Rα/IL2Rγ receptor [4]): 1260 MFI
pSTAT3 MFI, NK cells, 0.01 nM (unstimulated 1315) (IL10Rα/IL2Rγ receptor [4]): 1270 MFI
pSTAT3 MFI, NK cells, 0.1 nM (unstimulated 1315) (IL10Rα/IL2Rγ receptor [4]): 1270 MFI
pSTAT3 MFI, NK cells, 1 nM (unstimulated 1315) (IL10Rα/IL2Rγ receptor [4]): 1440 MFI
pSTAT3 MFI, NK cells, 10 nM (unstimulated 1315) (IL10Rα/IL2Rγ receptor [4]): 1800 MFI
pSTAT3 MFI, NK cells, 100 nM (unstimulated 1315) (IL10Rα/IL2Rγ receptor [4]): 1770 MFI
pSTAT3 MFI, CD8 T cells, 0.0001 nM (unstimulated 1446) (IL10Rα/IL2Rγ receptor [5]): 1380 MFI
pSTAT3 MFI, CD8 T cells, 0.001 nM (unstimulated 1446) (IL10Rα/IL2Rγ receptor [5]): 1410 MFI
pSTAT3 MFI, CD8 T cells, 0.01 nM (unstimulated 1446) (IL10Rα/IL2Rγ receptor [5]): 1430 MFI
pSTAT3 MFI, CD8 T cells, 0.1 nM (unstimulated 1446) (IL10Rα/IL2Rγ receptor [5]): 1610 MFI
pSTAT3 MFI, CD8 T cells, 1 nM (unstimulated 1446) (IL10Rα/IL2Rγ receptor [5]): 3060 MFI
pSTAT3 MFI, CD8 T cells, 10 nM (unstimulated 1446) (IL10Rα/IL2Rγ receptor [5]): 4470 MFI
pSTAT3 MFI, CD8 T cells, 100 nM (unstimulated 1446) (IL10Rα/IL2Rγ receptor [5]): 4260 MFI
pSTAT3 MFI, Monocytes, 0.0001 nM (unstimulated 2116) (IL10Rα/IL2Rγ receptor [6]): 2030 MFI
pSTAT3 MFI, Monocytes, 0.001 nM (unstimulated 2116) (IL10Rα/IL2Rγ receptor [6]): 2040 MFI
pSTAT3 MFI, Monocytes, 0.01 nM (unstimulated 2116) (IL10Rα/IL2Rγ receptor [6]): 2030 MFI
pSTAT3 MFI, Monocytes, 0.1 nM (unstimulated 2116) (IL10Rα/IL2Rγ receptor [6]): 2010 MFI
pSTAT3 MFI, Monocytes, 1 nM (unstimulated 2116) (IL10Rα/IL2Rγ receptor [6]): 2060 MFI
pSTAT3 MFI, Monocytes, 10 nM (unstimulated 2116) (IL10Rα/IL2Rγ receptor [6]): 2340 MFI
pSTAT3 MFI, Monocytes, 100 nM (unstimulated 2116) (IL10Rα/IL2Rγ receptor [6]): 2290 MFI

B2: DR442(DR236-DR232) (bispecific antibody)
chain: QVQLQESGGGSVQAGGSLRLSCAASRFTYSSYCMGWFRQAPGKEREGVASIDSDGSTSYTDSVKGRFTISKDNAKNTLYLQMNSLKPEDTAMYYCALDLMSTVVPGFCGFLLSAGMDYWGKGTQVTVSSGGGSQVQLQESGGGSVQAGGSLRLSCVASGYTSCMGWFRQAPGKEREAVATIYTRGRSIYYADSVKGRFTISQDNAKNTLYLQMNSLKPEDIAMYSCAAGGYSWSAGCEFNYWGQGTQVTVSSASHHHHHH
pSTAT3 MFI, B cells, 100 nM (unstimulated 1045) (IL10Rα/IL2Rγ receptor [1]): 1050 MFI
pSTAT3 MFI, CD4+ T cells, 100 nM (unstimulated 1778) (IL10Rα/IL2Rγ receptor [1]): 3110 MFI
pSTAT3 MFI, CD8+ T cells, 100 nM (unstimulated 1288) (IL10Rα/IL2Rγ receptor [1]): 2100 MFI
pSTAT3 MFI, Monocytes, 100 nM (unstimulated 1787) (IL10Rα/IL2Rγ receptor [1]): 1790 MFI
pSTAT3 MFI, NK cells, 100 nM (unstimulated 1149) (IL10Rα/IL2Rγ receptor [1]): 1220 MFI

B3: DR468(DR240-DR234) (bispecific antibody)
chain: QVQLQESGGGSVQAGGSLRLSCGASGYTYSSYCMGWFRQVPGKEREGVAVIDSDGSTSYADSVKGRFTISKDNGKNTLYLQMNSLKPEDTAMYYCAADLGHYRPPCGVLYLGMDYWGKGTQVTVSSGGGSQVQLQESGGGSVQAGGSLRLSCVASGYTFSSYCMGWFRQAPGKEREGVAALGGGSTYYADSVKGRFTISQDNAKNTLYLQMNSLKPEDTAMYYCAAAWVACLEFGGSWYDLARYKHWGQGTQVTVSSASHHHHHH
pSTAT3 MFI, B cells, 100 nM (unstimulated 1045) (IL10Rα/IL2Rγ receptor [1]): 1080 MFI
pSTAT3 MFI, CD4+ T cells, 100 nM (unstimulated 1778) (IL10Rα/IL2Rγ receptor [1]): 3520 MFI
pSTAT3 MFI, CD8+ T cells, 100 nM (unstimulated 1288) (IL10Rα/IL2Rγ receptor [1]): 2260 MFI
pSTAT3 MFI, Monocytes, 100 nM (unstimulated 1787) (IL10Rα/IL2Rγ receptor [1]): 1860 MFI
pSTAT3 MFI, NK cells, 100 nM (unstimulated 1149) (IL10Rα/IL2Rγ receptor [1]): 1290 MFI

B4: DR444(DR236-DR234) (bispecific antibody)
chain: QVQLQESGGGSVQAGGSLRLSCAASRFTYSSYCMGWFRQAPGKEREGVASIDSDGSTSYTDSVKGRFTISKDNAKNTLYLQMNSLKPEDTAMYYCALDLMSTVVPGFCGFLLSAGMDYWGKGTQVTVSSGGGSQVQLQESGGGSVQAGGSLRLSCVASGYTFSSYCMGWFRQAPGKEREGVAALGGGSTYYADSVKGRFTISQDNAKNTLYLQMNSLKPEDTAMYYCAAAWVACLEFGGSWYDLARYKHWGQGTQVTVSSASHHHHHH
pSTAT3 MFI, B cells, 100 nM (unstimulated 1045) (IL10Rα/IL2Rγ receptor [1]): 1070 MFI
pSTAT3 MFI, CD4+ T cells, 100 nM (unstimulated 1778) (IL10Rα/IL2Rγ receptor [1]): 3700 MFI
pSTAT3 MFI, CD8+ T cells, 100 nM (unstimulated 1288) (IL10Rα/IL2Rγ receptor [1]): 2410 MFI
pSTAT3 MFI, Monocytes, 100 nM (unstimulated 1787) (IL10Rα/IL2Rγ receptor [1]): 1830 MFI
pSTAT3 MFI, NK cells, 100 nM (unstimulated 1149) (IL10Rα/IL2Rγ receptor [1]): 1270 MFI
